From US6287865

Target: Avr2 elicitor molecule of Cladosporium fulvum (Cladosporium fulvum)

B1: Cf-2.1 protein (polypeptide encoded by the tomato Cf-2.1 gene) (receptor)
chain: STEEATALLKWKATFKNQNNSFLASWIPSSNACKDWYGVVCFNGRVNTLNITNASVIGTLYAFPFSSLPSLENLDLSKNNIYGTIPPEIGNLTNLVYLDLNNNQISGTIPPQIGLLAKLQIIRIFHNQLNGFIPKEIGYLRSLTKLSLGINFLSGSIPASVGNLNNLSFLYLYNNQLSGSIPEEISYLRSLTELDLSDNALNGSIPASLGNMNNLSFLFLYGNQLSGSIPEEICYLRSLTYLDLSENALNGSIPASLGNLNNLSFLFLYGNQLSGSIPEEIGYLRSLNVLGLSENALNGSIPASLGNLKNLSRLNLVNNQLSGSIPASLGNLNNLSMLYLYNNQLSGSIPASLGNLNNLSMLYLYNNQLSGSIPASLGNLNNLSRLYLYNNQLSGSIPEEIGYLSSLTYLDLSNNSINGFIPASFGNMSNLAFLFLYENQLASSVPEEIGYLRSLNVLDLSENALNGSIPASFGNLNNLSRLNLVNNQLSGSIPEEIGYLRSLNVLDLSENALNGSIPASFGNLNNLSRLNLVNNQLSGSIPEEIGYLRSLNDLGLSENALNGSIPASLGNLNNLSMLYLYNNQLSGSIPEEIGYLSSLTYLSLGNNSLNGLIPASFANMRNLQALILNDNNLIGEIPSSVCNLTSLEVLYMPRNNLKGKVPQCLGNISNLQVLSMSSNSFSGELPSSISNLTSLQILDFGRNNLEGAIPQCFGNISSLEVFDMQNNKLSGTLPTNFSIGCSLISLNLHGNELEDEIPRSLDNCKKLQVLDLGDNQLNDTFPMWLGTLPELRVLRLTSNKLHGPIRSSRAEIMFPDLRIIDLSRNAFSQDLPTSLFEHLKGMRTVDKTMEEPSYESYYDDSVVVVTKGLELEIVRILSLYTVIDLSSNKFEGHIPSVLGDLIAIRILNVSHNALQGYIPSSLGSLSILESLDLSFNQLSGEIPQQLASLTFLEFLNLSHNYLQGCIPQGPQFRTFESNSYEGNDGLRGYPVSKGCGKDPVSEKNYTVSALEDQESNSEFFNDFWKAALMGYGSGLCIGISMIYILISTGNLRWLARIIEKLEHKIIMQRRKKQRGQRNYRRRNNHF
- resistance of progeny of resistant transformants to matched races of C. fulvum carrying or lacking Avr-2 (race 5,9 compared with race 2,5,9): 75%

B2: Cf-2.2 protein (polypeptide encoded by the tomato Cf-2.2 gene) (receptor)
chain: STEEATALLKWKATFKNQNNSFLASWIPSSNACKDWYGVVCFNGRVNTLNITNASVIGTLYAFPFSSLPSLENLDLSKNNIYGTIPPEIGNLTNLVYLDLNNNQISGTIPPQIGLLAKLQIIRIFHNQLNGFIPKEIGYLRSLTKLSLGINFLSGSIPASVGNLNNLSFLYLYNNQLSGSIPEEISYLRSLTELDLSDNALNGSIPASLGNMNNLSFLFLYGNQLSGSIPEEICYLRSLTYLDLSENALNGSIPASLGNLNNLSFLFLYGNQLSGSIPEEIGYLRSLNVLGLSENALNGSIPASLGNLKNLSRLNLVNNQLSGSIPASLGNLNNLSMLYLYNNQLSGSIPASLGNLNNLSMLYLYNNQLSGSIPASLGNLNNLSRLYLYNNQLSGSIPEEIGYLSSLTYLDLSNNSINGFIPASFGNMSNLAFLFLYENQLASSVPEEIGYLRSLNVLDLSENALNGSIPASFGNLNNLSRLNLVNNQLSGSIPEEIGYLRSLNVLDLSENALNGSIPASFGNLNNLSRLNLVNNQLSGSIPEEIGYLRSLNDLGLSENALNGSIPASLGNLNNLSMLYLYNNQLSGSIPEEIGYLSSLTYLSLGNNSLNGLIPASFGNMRNLQALILNDNNLIGEIPSSVCNLTSLEVLYMPRNNLKGKVPQCLGNISNLQVLSMSSNSFSGELPSSISNLTSLQILDFGRNNLEGAIPQCFGNISSLEVFDMQNNKLSGTLPTNFSIGCSLISLNLHGNELEDEIPRSLDNCKKLQVLDLGDNQLNDTFPMWLGTLPELRVLRLTSNKLHGPIRSSRAEIMFPDLRIIDLSRNAFSQDLPTSLFEHLKGMRTVDKTMEEPSYESYYDDSVVVVTKGLELEIVRILSLYTVIDLSSNKFEGHIPSVLGDLIAIRILNVSHNALQGYIPSSLGSLSILESLDLSFNQLSGEIPQQLASLTFLEFLNLSHNYLQGCIPQGPQFRTFESNSYEGNDGLRGYPVSKGCGKDPVSEKNYTVSALEDQESNSEFFNDFWKAALMGYGSGLCIGISIIYILISTGNLRWLARIIEELEHKIIMQRRKKQRGQRNYRRRNNRF
- resistance of progeny of resistant transformants to matched races of C. fulvum carrying or lacking Avr-2 (race 5,9 compared with race 2,5,9): 75%
